Patent publication US20140341937A1 (US Dept. of Health and Human Services, published 2014)

Tests used:
CCR8 = biological target: T1, CCR8 (human, UniProt P51685 1-355); test: flow cytometry on receptor-expressing cells
T1 construct: whole, on cells; also called human CCR8; HEK/CCR8

CCR4 = biological target: T2, CCR4 (human, UniProt P51679 1-360); test: flow cytometry on CEM cells, anti-EDN antibody detection
T2 construct: whole, on cells; also called human CCR4; CCR4 on CEM cells
T2 sequence (looked up): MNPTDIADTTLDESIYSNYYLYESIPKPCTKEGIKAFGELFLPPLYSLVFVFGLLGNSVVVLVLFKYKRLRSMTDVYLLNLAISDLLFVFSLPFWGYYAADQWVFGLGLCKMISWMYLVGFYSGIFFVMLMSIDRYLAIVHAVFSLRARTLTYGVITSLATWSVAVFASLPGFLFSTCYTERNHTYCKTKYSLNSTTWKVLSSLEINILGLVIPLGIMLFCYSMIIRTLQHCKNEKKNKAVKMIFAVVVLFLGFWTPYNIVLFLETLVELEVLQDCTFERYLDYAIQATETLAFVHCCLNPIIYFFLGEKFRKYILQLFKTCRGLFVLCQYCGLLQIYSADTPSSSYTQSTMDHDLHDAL

T1 sequence (P51685 whole entry): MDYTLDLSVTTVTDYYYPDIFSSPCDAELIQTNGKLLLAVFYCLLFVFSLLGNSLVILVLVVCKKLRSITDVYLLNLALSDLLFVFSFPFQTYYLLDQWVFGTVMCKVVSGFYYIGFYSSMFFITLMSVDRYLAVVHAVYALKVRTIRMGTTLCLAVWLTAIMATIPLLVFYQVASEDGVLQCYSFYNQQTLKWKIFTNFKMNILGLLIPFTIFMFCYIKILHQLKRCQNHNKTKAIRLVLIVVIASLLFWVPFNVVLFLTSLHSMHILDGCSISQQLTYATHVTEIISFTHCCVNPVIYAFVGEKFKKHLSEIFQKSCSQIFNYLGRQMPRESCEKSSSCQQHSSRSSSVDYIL

B1: eosinophil-derived neurotoxin (EDN) (enzyme, human, UniProt P10153 28-161, looked up)
chain: KPPQFTWAQWFETQHINMTSQQCTNAMQVINNYQRRCKNQNTFLLTTFANVVNVCGNPNMTCPSNKTRKNCHHSGSQVPLIHCNLTTPSPQNISNCRYAQTPANMFYIVACDNRDQRRDPPQYPVVPVHLDRII
notes: Unfused control protein; also called EDN alone; toxin alone
B1: no binding (CCR8); no binding (tested: 50 µg/ml) (CCR4).
